Laboratory results reported in patent US20090170763A1 (KENJI KANGAWA, published 2009).
Read-outs that look alike come from different tables or passages of the source. Each block holds one binder with its values, some of them ahead of it. Square brackets hold non-standard residues; d marks the D form. Ends that are not written are not given here. * marks the point of attachment. NMeF = CN[C@@H](Cc1ccccc1)C(=O)O; NMeL = CN[C@@H](CC(C)C)C(=O)O; Octanoyl = CCCCCCCC(=O)*; Ava = NCCCCC(=O)O; Octyl = CCCCCCCC*

How the values were obtained:
[1] = molecular target: T1, rat GHS-R (GHS receptor) expressed on CHO-GHSR62 cells (rat, UniProt O08725 1-364); test: cell-based or functional assay
T1 sequence (O08725 whole entry): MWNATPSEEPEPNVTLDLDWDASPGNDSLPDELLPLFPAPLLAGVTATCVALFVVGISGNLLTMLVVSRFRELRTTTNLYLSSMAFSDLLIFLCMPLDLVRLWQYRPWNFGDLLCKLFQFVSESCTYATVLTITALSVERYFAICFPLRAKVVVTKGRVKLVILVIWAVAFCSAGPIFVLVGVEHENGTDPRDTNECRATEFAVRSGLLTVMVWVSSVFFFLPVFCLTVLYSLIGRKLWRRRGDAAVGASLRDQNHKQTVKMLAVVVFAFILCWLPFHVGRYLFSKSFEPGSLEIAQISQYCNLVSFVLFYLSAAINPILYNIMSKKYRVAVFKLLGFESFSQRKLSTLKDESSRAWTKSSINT

[2] = molecular target: T1, rat GHS-R (GHS receptor) expressed on …; test: cell-based or functional assay; remark: listed apart in the source
[3] = molecular target: amino-terminal antibody (anti-[C-Cys]-rat ghrelin [1-11] antigen); test: radioimmunoassay: inhibition of binding of radioisotope-labeled rat ghrelin to the amino-terminal antibody
[4] = molecular target: T1, rat GHS-R (GHS receptor) expressed on …; test: cell-based or functional assay; remark: listed apart in the source
[5] = molecular target: T1, rat GHS-R (GHS receptor) expressed on …; test: cell-based or functional assay; remark: listed apart in the source
[6] = molecular target: T1, rat GHS-R (GHS receptor) expressed on …; test: cell-based or functional assay; remark: listed apart in the source

Activity EC50 [1]: 32 nM
Binder: GSK(Octanoyl)FLSPEHQRVQQRKESKKPPAKLQPR [[Lys^3(Octanoyl)]-hGhrelin]

EC50 value [2]: 1.5 nM | cross-reactivity [3]: 100% | Ca-releasing activity EC50 [4]: 2.5 nM | Ca-releasing activity EC50 [5]: 1.5 nM
Binder: GSS(Octanoyl)FLSPEHQKAQQRKESKKPPAKLQPR [rat ghrelin]

Activity EC50 [6]: 82 nM | EC50 [4]: 86 nM
Binder: [Ava]S(Octyl)[NMeF][NMeL]-NH2 [[N-Aminopentanoyl,Ser^3(Octyl),MePhe^4,MeLeu^5]-Ghrelin (3-5)-amide]
